According to patent publication US6387643B1, “Human platelet heparanase polypeptides, polynucleotide molecules that encode them, and methods for the identification of compounds that alter heparanase activity” (Pharmacia and Upjohn Company, priority 1998, dated 2002):

Key:
[1] = tested on: platelets; settings: 1 U/ml thrombin; cited from earlier work
[2] = tested on: ^35S-HSPG (>70 K); test: Heparanase activity, Conventional Assay (degradation of 35S-HSPG, 30,000 MW cut-off filter); format: biochemical, mice
Procedure: The pH optimum of the purified heparanase was determined by conducting the assay described in Example 2 (the Conventional Assay) in the pH range of 3.5 to 8.0, using a citrate buffer (pH 3.5-6.0), citrate-phosphate buffer (pH 6.5-7.0), and phosphate buffer (pH 7.5-8). Heparanase was active between pH 5.0 and 8.0, with the optimum pH at 5.8.
^35S-HSPG (>70 K) was prepared from mice bearing a basement membrane tumor that overproduces HSPG (EHS tumor), using modifications of the method of Ledbetter et al. (Biochemistry 26: 988-995 (1987)). Briefly, the radiolabeled HSPG was prepared by injecting C57BL mice bearing the EHS tumor with sodium [^35S] sulfate (0.5 mCi/mouse) 18 h before harvesting the tumor. […]
^35S-HSPG was isolated from the Buffer B supernatant by sequential chromatography on anion exchange and gel filtration columns. […] Fractions were sampled for radioactivity, and those containing the ^35SO4 label that eluted from the DEAE-Sephacel between 0.4 M and 0.8 M NaCl were pooled. […] Fractions were sampled for radioactivity, and those containing the ^35SO4 label that elutes with a molecular weight 70 kDa were pooled. […]
Heparanase activity from platelets or column fractions was detected by its ability to digest the 70 kDa ^35S-HSPG to produce lower molecular weight products. not retained by a 30,000 MW cut-off membrane. […]

## thrombin
[1]
  heparanase activity released from platelets: 100%

B1: purified heparanase: Human platelet heparanase: non-covalently associated 56 kDa (residues 145-530) and 8 kDa (residues 23-96) polypeptides of SEQ ID NO:2 (protein)
chain: QDVVDLDFFTQEPLHLVSPSFLSVTIDANLATDPRFLILLGSPKLRTLARGLSPAYLRFGGTKTDFLIFDPKKESTFEERSYWQSQVNQDICKYGSIPPDVEEKLRLEWPYQEQLLLREHYQKKFKNSTYSRSSVDVLYTFANCSGLDLIFGLNALLRTADLQWNSSNAQLLLDYCSSKGYNISWELGNEPNSFLKKADIFINGSQLGEDFIQLHKLLRKSTFKNAKLYGPDVGQPRRKTAKMLKSFLKAGGEVIDSVTWHHYYLNGRTATKEDFLNPDVLDIFISSVQKVFQVVESTRPGKKVWLGETSSAYGGGAPLLSDTFAAGFMWLDKLGLSARMGIEVVMRQVFFGAGNYHLVDENFDPLPDYWLSLLFKKLVGTKVLMASVQGSKRRKLRVYLHCTNTDNPRYKEGDLTLYAINLHNVTKYLRLPYPFSNKQVDKYLLRPLGPHGLLSKSVQLNGLTLKMVDDQTLPPLMEKPLRPGSSLGLPAFSYSFFVIRNAKVAACI
modifications: two chains: residues 145-530 and 23-96
[2]; pH range 3.5 to 8.0, citrate, citrate-phosphate and phosphate buffers
  optimum pH of heparanase activity: 5.8

B2: Pro-heparanase: 508 residue protein, amino acid residues 23 to 530 of SEQ ID NO: 2, precursor of heparanase (protein)
chain: QDVVDLDFFTQEPLHLVSPSFLSVTIDANLATDPRFLILLGSPKLRTLARGLSPAYLRFGGTKTDFLIFDPKKESTFEERSYWQSQVNQDICKYGSIPPDVEEKLRLEWPYQEQLLLREHYQKKFKNSTYSRSSVDVLYTFANCSGLDLIFGLNALLRTADLQWNSSNAQLLLDYCSSKGYNISWELGNEPNSFLKKADIFINGSQLGEDFIQLHKLLRKSTFKNAKLYGPDVGQPRRKTAKMLKSFLKAGGEVIDSVTWHHYYLNGRTATKEDFLNPDVLDIFISSVQKVFQVVESTRPGKKVWLGETSSAYGGGAPLLSDTFAAGFMWLDKLGLSARMGIEVVMRQVFFGAGNYHLVDENFDPLPDYWLSLLFKKLVGTKVLMASVQGSKRRKLRVYLHCTNTDNPRYKEGDLTLYAINLHNVTKYLRLPYPFSNKQVDKYLLRPLGPHGLLSKSVQLNGLTLKMVDDQTLPPLMEKPLRPGSSLGLPAFSYSFFVIRNAKVAACI
[2]; before cleavage of the Glu96-Ser97 and Gln144-Lys145 bonds
  catalytic activity: not catalytically active
